“Also recorded” adds a separate entry of the source.
What was measured:
[1] = target: T1, biotinylated mesothelin ECD (Homo sapiens, UniProt Q13421); experiment: Surface plasmon resonance (Biacore T200) binding affinity of purified scFvs; details: for Kd: 1:1 Binding or Steady State Affinity fit; for ka / kd: 1:1 Binding fit
T1 construct: made in house; host or cells: HEK293F (transient)
Experimental: Binding affinity of purified scFvs was measured on a Biacore T200 system. Briefly, recombinant human biotinylated mesothelin ECD was immobilized on a streptavidin (SA) sensor chip surface at a density of 150 RU. Purified scFv was injected over the chip under constant flow rate at three-fold serial dilutions. Association and dissociation rates of the protein complex were monitored for 270 seconds and 400 seconds, respectively. Double referencing was performed against a blank immobilized flow cell and a buffer blank. Affinity was determined with a Langmuir 1:1 binding model when possible, for those scFVs where accurate fitting was not possible due to fast on and off rates, the steady state model was used.

[2] = Size exclusion chromatography (oligomerization state of expressed scFvs); format: physicochemical; details: purified scFv
Experimental: Size exclusion chromatography was performed to determine the oligomerization states of the expressed scFvs. 25 μg each was injected onto a TSKGel Super SW3000 4.6 mm×300 mm column (Tosoh Bioscience) heated to 35° C. The scFvs were eluted at 0.3 mL/min in 750 mM arginine, 1 mM EDTA, 20 mM sodium phosphate, 250 mM sodium chloride, pH 7.2; the UV absorbance was monitored at 280 nm.

[3] = target: T1, biotinylated mesothelin ECD; experiment: SPR relative epitope binning in comparison to SS1; format: binding; details: 50 nM SS1 captured first, then scFv at 100 nM
Experimental: In embodiments, the competition assay is an SPR-based assay. Briefly, the antigen, e.g., human mesothelin, is immobilized on a surface. Through a microflow system, a reference antibody is injected over the antigen layer. Upon binding of the reference antibody to the antigen, an increase in signal, typically expressed in response units (RU) is detected, e.g., reference signal. After a desired time, a test antibody is injected over the antigen layer. If the test antibody binds to a different region or epitope of the antigen, then an additional increase in signal is detected, e.g., a 5% or more, 10% or more, 15% or more, 20% or more, 25% or more, 30% or more, 35%, or more, 40% or more, 45% or more, 50% or more, 55% of more, 60% or more, 65% or more, 70% or more, 75% or more, 80% or more, 85% or more, 90% or more, or 95% or more increase in signal, e.g., RU, as compared to the highest signal detected upon binding of the reference antibody, e.g., the reference signal. If the test antibody binds to the same region or epitope of the antigen, then little or no increase in signal, e.g., RU, will be detected, e.g., less than 20%, less than 15%, less than 10%, less than 5%, less than 4%, less than 3%, less than 2%, or less than 1% increase in signal, e.g., RU, as compared to the highest signal detected upon binding of the reference antibody, e.g., the reference signal. When using this SPR-based competition assay, an antibody is said to compete with the reference antibody when less than 20%, less than 15%, less than 10%, less than 5%, less than 4%, less than 3%, less than 2%, or less than 1% increase in signal, e.g., RU, is detected when compared to the reference signal detected upon binding of the reference antibody to the antigen. An antibody is said to not compete, or compete poorly, with a reference antibody when a 5% or more, 10% or more, 15% or more, 20% or more, 25% or more, 30% or more, 35%, or more, 40% or more, 45% or more, 50% or more, 55% of more, 60% or more, 65% or more, 70% or more, 75% or more, 80% or more, 85% or more, 90% or more, or 95% or more increase in signal, e.g., RU, is detected when compared to the reference signal detected upon binding of the reference antibody to the antigen.
To determine the relative binding epitope of each of the scFvs in comparison to SS1, 50 nM SS1 was captured by biotinylated mesothelin ECD immobilized on a streptavidin sensor chip at a contact time of 180 seconds resulting in a relative density of 70 RU. Purified scFv at 100 nM (M5, M11, M12, M14, M16, M17, M21, or M23) was then immediately injected over the chip to minimize dissociation of the SS1/mesothelin complex. Binding of the secondary scFv was monitored for 270 seconds.

Ovcar8 = Ovcar8 xenograft model (Example 8); format: in vivo, NSG mice; details: OVCAR8-mcherry; 10×10^6 T cells, about 4×10^6 CART cells
Experimental: Anti-tumor activity of CART-MSLN was assessed in vivo in an Ovcar8 xenograft model. 10×10^6 Ovcar8 cells were implanted subcutaneously on day 0 in NSG mice. At day 14, 2×10^6 CART cells (CARTs expressing M5, M11, M17, M21, SS1, and CD19, or untransduced cells; 10×10^6 total T cells) in a 100 μl dose was administered intravenously. Mice and tumors were monitored for about 40 days after tumor cell implantation.
A second in vivo xenograft experiment was performed to assess the anti-tumor activity of a second set of CART-MSLN cells. 10×10^6 OVCAR8-mcherry cells were injected into NSG mice. Once tumors were 150-250 mm^2, mice were randomized into treatment groups. CARTs expressing M12, M14, M16, M23, ss1, CD19, or untreated cells were injected at a dose of 10×10^6 T cells in 100 μl. About 40% of T cells were expressing CAR, and therefore at the administered dosage, about 4×10^6 CART cells were delivered to each animal.

Ovcar3 = experiment: Luciferase-based killing assay; format: cell-based, human
Experimental: The ability for the CART-MSLN to target and kill tumor cells was also assessed in vitro. A luciferase-based assay was used, with tumor cell lines expressing luciferase reporters. Target cells (tumor cells) were plated at 20,000 targets/well. CART-MSLN were added at varying effector:target ratios, from 10:1, 5:1, 2.5:1, and 1:1. The cells were cultured for 20 hours, and the luminescence of each well was detected to determine the percentage of target cells killed. Luciferase-expressing Ovcar3 (ovarian cancer) and U87 mg (glioblastoma) cell lines were used as target cells.

T1 sequence (Q13421 with tags, fused parts or gaps): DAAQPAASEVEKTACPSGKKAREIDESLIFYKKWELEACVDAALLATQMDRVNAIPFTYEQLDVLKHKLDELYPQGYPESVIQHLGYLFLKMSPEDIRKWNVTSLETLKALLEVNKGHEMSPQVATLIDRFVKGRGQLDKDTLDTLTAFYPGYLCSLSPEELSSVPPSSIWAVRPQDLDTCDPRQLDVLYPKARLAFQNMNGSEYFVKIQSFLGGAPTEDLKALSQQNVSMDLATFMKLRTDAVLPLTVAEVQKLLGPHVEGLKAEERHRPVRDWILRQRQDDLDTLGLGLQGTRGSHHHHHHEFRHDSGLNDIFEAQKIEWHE

Row | Kd [1] | ka [1] | kd [1] | Molecule | % Monomer (SEC) [2] | relative epitope binning against SS1 on human mesothelin [3] | effect on tumor growth, second xenograft experiment (Ovcar8) | killing of target tumor cells (Ovcar3; E:T 10:1 to 1:1, 20 hours, FIG. 16A) | specific killing within the panel of human meso CARs (Ovcar3; FIGS. 17A and 17B)
1 | 110 nM | – | – | M21: human anti-mesothelin scFv SEQ ID NO: 59; CDRs in Tables 4 and 5 (protein) scFv: QVQLVQSWAEVKKPGASVKVSCKASGYTFTSYYMHWVRQAPGQGLEWMGIINPSGGSTSYAQKFQGRVTMTRDTSTSTVYMELSNLRSEDTAVYYCARSPRVTTGYFDYWGQGTLVTVSSGGGGSGGGGSGGGGSGGGGSDIQLTQSPSTLSASVGDRVTITCRASQSISSWLAWYQQKPGKAPKLLIYKASSLESGVPSRFSGSGSGTEFTLTISSLQPDDFATYYCQQYSSYPLTFGGGTRLEIK | >98% | Competitive binding; also recorded: competitive binders with SS1 | – | – | –
2 | 0.9 nM | 2.75e+06 M⁻¹ s⁻¹ | 0.00251 s⁻¹ | M14: human anti-mesothelin scFv SEQ ID NO: 52; full CAR SEQ ID NO: 76 (protein) scFv: QVQLVQSGAEVRAPGASVKISCKASGFTFRGYYIHWVRQAPGQGLEWMGIINPSGGSRAYAQKFQGRVTMTRDTSTSTVYMELSSLRSDDTAMYYCARTASCGGDCYYLDYWGQGTLVTVSSGGGGSGGGGSGGGGSGGGGSDIQMTQSPPTLSASVGDRVTITCRASENVNIWLAWYQQKPGKAPKLLIYKSSSLASGVPSRFSGSGSGAEFTLTISSLQPDDFATYYCQQYQSYPLTFGGGTKVDIK | 74.5% | Competitive binding; also recorded: competitive binders with SS1 | did not have an effect on tumor growth | – | –
3 | 27.8 nM | 522000 M⁻¹ s⁻¹ | 0.0145 s⁻¹ | M17: human anti-mesothelin scFv SEQ ID NO: 55; full CAR SEQ ID NO: 79 (protein) scFv: EVQLVESGGGLVQPGRSLRLSCAASGFTFDDYAMHWVRQAPGKGLEWVSGISWNSGSTGYADSVKGRFTISRDNAKNSLYLQMNSLRAEDTALYYCAKDSSSWYGGGSAFDIWGQGTMVTVSSGGGGSGGGGSGGGGSSSELTQDPAVSVALGQTVRITCQGDSLRSYYASWYQQKPGQAPVLVIYGKNNRPSGIPDRFSGSSSGNTASLTITGAQAEDEADYYCNSRGSSGNHYVFGTGTKVTVL | >98% | Competitive binding; also recorded: competitive binders with SS1 | – | performed similarly well in killing target tumor cells | highest specific killing of Ovcar3 cells
4 | 22.7 nM | 174000 M⁻¹ s⁻¹ | 0.00395 s⁻¹ | M16: human anti-mesothelin scFv SEQ ID NO: 54; full CAR SEQ ID NO: 78 (protein) scFv: EVQLVESGGGLVQPGRSLRLSCAASGFTFDDYAMHWVRQAPGKGLEWVSGISWNSGSTGYADSVKGRFTISRDNAKNSLYLQMNSLRAEDTALYYCAKDSSSWYGGGSAFDIWGQGTMVTVSSGGGGSGGGGSGGGGSSSELTQEPAVSVALGQTVRITCQGDSLRSYYASWYQQKPGQAPVLVIFGRSRRPSGIPDRFSGSSSGNTASLIITGAQAEDEADYYCNSRDNTANHYVFGTGTKLTVL | 94.5% | Competitive binding; also recorded: competitive binders with SS1 | did not have an effect on tumor growth | – | –
5 | 307 nM | – | – | M12: human anti-mesothelin scFv SEQ ID NO: 50; full CAR SEQ ID NO: 74 (protein) scFv: QVQLVQSGAEVKKPGASVKVSCKASGYTFTGYYMHWVRQAPGQGLEWMGRINPNSGGTNYAQKFQGRVTMTTDTSTSTAYMELRSLRSDDTAVYYCARTTTSYAFDIWGQGTMVTVSSGGGGSGGGGSGGGGSGGGGSDIQLTQSPSTLSASVGDRVTITCRASQSISTWLAWYQQKPGKAPNLLIYKASTLESGVPSRFSGSGSGTEFTLTISSLQPDDFATYYCQQYNTYSPYTFGQGTKLEIK | 70% | Competitive binding; also recorded: competitive binders with SS1 | did not have an effect on tumor growth | – | –
6 | 114 nM | – | – | M23: human anti-mesothelin scFv SEQ ID NO: 61; CDRs in Tables 4 and 5 (protein) scFv: QVQLQQSGAEVKKPGASVKVSCKASGYTFTNYYMHWVRQAPGQGLEWMGIINPSGGYTTYAQKFQGRLTMTRDTSTSTVYMELSSLRSEDTAVYYCARIRSCGGDCYYFDNWGQGTLVTVSSGGGGSGGGGSGGGGSGGGGSDIQLTQSPSTLSASVGDRVTITCRASENVNIWLAWYQQKPGKAPKLLIYKSSSLASGVPSRFSGSGSGAEFTLTISSLQPDDFATYYCQQYQSYPLTFGGGTKVDIK | 91% | Competitive binding; also recorded: competitive binders with SS1 | did not have an effect on tumor growth | – | –

From US11999794B2, “Human mesothelin chimeric antigen receptors and uses thereof” (Novartis AG, priority 2013, dated 2024)
